The target of test [1] is T1, SARS-CoV-2 RBD (produced in house in Expi-CHO cells; residues 331-550 of spike) (SARS-CoV-2 BetaCoV/Wuhan-Hu-1/2019, UniProt P0DTC2 331-550). The test can be described thus: ELISA, antigen coated on the plate, OD 405 nm.
The target of test [2] is T1, SARS-CoV-2 RBD (produced in house in …). Description: ELISA, antigen coated on the plate, OD 405 nm. This is another data set of the same source. Background: An ELISA detects its analyte on a solid surface through an enzyme-linked reagent.
The target in test [3] is T2, SARS-CoV-2 Spike (S) protein, strain BetaCoV/Wuhan-Hu-1/2019, full length (SARS-CoV-2 Wuhan-Hu-1, UniProt P0DTC2 14-1273). The test can be described thus: cell-based or functional assay.
The target in test [4] is SARS-CoV-1 Spike (S) protein, strain SARS, on ExpiCHO cells (SARS-CoV (SARS-CoV-1), strain SARS, UniProt P59594 14-1255). The test can be described thus: flow cytometry, ExpiCHO cells expressing SARS-CoV-1 S; % positive cells. For orientation: Flow cytometry measures light scatter and fluorescence of single cells or particles in a stream.
Test [5] concerns the target T3, SARS-CoV-1 RBD (Sino Biological) (SARS-CoV-1, UniProt P59594 306-527). The test can be described thus: ELISA, antigen coated on the plate, OD 405 nm.
For test [6], the target named is T3, SARS-CoV-1 RBD (Sino Biological). Description: ELISA, antigen coated on the plate, OD 405 nm. This is another data set of the same source.
Test [7] has as its target T1, SARS-CoV-2 RBD (produced in house in …). The test can be described thus: ELISA, antigen coated on the plate, OD 405 nm. This is another data set of the same source.
Test [8] has the same target. Description: ELISA, antigen coated on the plate, OD 405 nm. This is another data set of the same source.
Test [9] has as its target T2, SARS-CoV-2 Spike (S) protein, strain …. Description: flow cytometry, ExpiCHO cells expressing SARS-CoV-2 S; % positive cells.
For test [10] the target is unchanged.
Test [11] deals with His-tagged RBD of SARS-CoV-2 (SARS-CoV-2 BetaCoV/Wuhan-Hu-1/2019, UniProt P0DTC2 331-550).
Test [12] has as its target His-tagged RBD of SARS-CoV-1 (SARS-CoV-1, UniProt P59594 306-527).
Test [13] concerns the target T1, SARS-CoV-2 RBD (produced in house in …). Description: BLI (Octet), antibody on protein A sensors, RBD in solution, global fit. (In BLI a coated tip is dipped into the sample, and binding shifts an interference pattern.)
The target of test [14] is T4, SARS-CoV-1 RBD (Sino Biological) (SARS-CoV-1, UniProt P59594 306-527). The test is described as above.
Test [15] addresses T1, SARS-CoV-2 RBD (produced in house in …). The test can be described thus: ELISA, antigen coated on the plate, OD 405 nm. The source holds these as a separate data set.
The target in test [16] is T4, SARS-CoV-1 RBD (Sino Biological). The test can be described thus: ELISA, antigen coated on the plate, OD 405 nm. This is another data set of the same source.
Test [17] has as its target T1, SARS-CoV-2 RBD (produced in house in …). The test can be described thus: ELISA, antigen coated on the plate, OD 405 nm. This is another data set of the same source.
For test [18], the target named is T4, SARS-CoV-1 RBD (Sino Biological). Description: ELISA, antigen coated on the plate, OD 405 nm. The source holds these as a separate data set.

Like-named read-outs stand apart in the source and are kept apart here. Where only a bound is given, the exact number is not on record here.

By EC50 (read off the curve) is commonly meant the concentration giving half of the maximal effect. A lower EC50 (read off the curve) goes with an effect from little substance. In general, EC50 refers to the concentration needed to bring the measured effect to its halfway point. For orientation: Kd means the equilibrium constant for the complex coming apart.

B1: S315 rIgG1-MLNS (antibody, V domains shown)
VH: EVQLVESGGGLVQPGGSLRLSCAASGFTFSNYWMTWVRQAPGKGLEWVANIKQDGSEKYYVDSVKGRFTISRDNAKNSLYLQMNSLRAEDTAVYYCARDLWWNDQAHYYGMDVWGQGTTVTVSS
VL: SYELTQPPSVSVSPGQTARITCSGDAFPNQYAYWYQQKPGQAPVMLIYKDSERPSGIPERFFGSSSGTTVTLTIRGVQAEDEADYYCQSADSSGTVFGGGTKLTVL
Regarding B1, the “EC50 (read off the curve)” value in [1] and in test [2] was roughly 0.2 µg/mL in each case.

B2: SARS-CoV-2 S308 mAb (B cell supernatant) (antibody, V domains shown)
VH: QVQLVESGGGVVQPGRSLRLSCAASRFTFSSYGMHWVRQAPGKGLEWVAVIWHDGNNKHYGDSVKGRVTISRDNSKNTLYLQMTSLRAEDTAVYYCARAVTTFKGSGRARMRGMDVWGQGTTVTVSS
VL: DIQLTQSPSFLSASVGDRVTITCRASQGINTYLAWYQQKPGKAPKLLIYAASTLQSGVPSRFSGSGSGTEFTLTISSLQPEDFATYYCQHLDTYPFTFGPGTKVDIK
For B2, in test [3], the “Percent neutralization of infection, dilution 2” value was -46%; the “Percent neutralization of infection, dilution 6” value is 19%; the “Percent neutralization of infection, dilution 18” value is 32%; the “Percent neutralization of infection, dilution 54” value came out at 16%.

B3: SARS-CoV-2 S306 mAb (B cell supernatant) (antibody, V domains shown)
VH: QVQLVQSGAEVKKPGASVKVSCKASTYTFTSFGISWVRQAPGQGLEWMGWITTYSGDTNYAQKFQGRVTMTTDTSTNTAYMELRSLRSDDTAVYYCASDYFDSSGYYHSFDYWGQGTLVTVSS
VL: EIVLTQSPDTLSLSPGERATLSCRASQSVSSYLAWYQQRPGQAPRLLIYDASKRATGIPARFSGSGSGTDFTLTISSLEPEDFAVYYCQQRSNWPPGCSFGQGTKVEIK
In the case of B3, in [3], the “Percent neutralization of infection, dilution 2” value is -19%; the “Percent neutralization of infection, dilution 6” value stood at 15%; the “Percent neutralization of infection, dilution 18” value is -9%; the “Percent neutralization of infection, dilution 54” value turned out to be 6%.

B4: S306 (antibody, V domains shown)
VH: B3 VH
VL: B3 VL
As to B4, in test [4], the “EC50 (read off the curve)” value was roughly 0.02 µg/mL.

B5: S110 (antibody, V domains shown)
VH: QVQLVESGGGLVQAGGSLRLSCAASGRTFSSAGMAWFRQAPGKEREFVATSNWNGGDTDYADSVKGRFTISRDNAKNTVYLQMNNLKPEDTAVYYCAAHLQKYGGDYYARIWGQGTQVTVS
For B5, the “EC50 (read off the curve)” value in test [5] and in test [6] was roughly 0.08 µg/mL in each case.

B6: SARS-CoV-2 S304 mAb (B cell supernatant) (antibody, V domains shown)
VH: EVQLVESGGGLVQPGGSLRLSCAASGFTFSSYDMHWVRQTTGKGLEWVSTIGTAGDTYYPDSVKGRFTISREDAKNSLYLQMNSLRAGDTAVYYCARGDSSGYYYYFDYWGQGTLLTVSS
VL: DIQMTQSPSSLSAAVGDRVTITCRASQSIGSYLNWYQQKPGKAPKLLIYAASSLQSGVPSRFSGSGSGTDFTLTISSLQPEDFAIYYCQQSYVSPTYTFGPGTKVDIK
In the case of B6, in test [3], the “Percent neutralization of infection, dilution 2” value is -21%; the “Percent neutralization of infection, dilution 6” value is 25%; the “Percent neutralization of infection, dilution 18” value was -22%; the “Percent neutralization of infection, dilution 54” value came out at 7%.

B7: S304-rIgG1-LS (antibody, V domains shown)
VH: B6 VH
VL: B6 VL
For B7, the “EC50 (read off the curve)” value in test [7] and in test [8] was roughly 0.1 µg/mL each time.

B8: S310 (antibody, V domains shown)
VH: QVQLVQSGAELKKPGSSVKVSCKASGGTFNSYSFNWVRQAPGQGLEWLGGIIPVLGTSNYAQKFQGRVAVTADEFTTTAYMELSSLRSEDTAVYYCATRTYDSSGYRPYYYGLDVWGQGTPVTVSS
VL: QSALTQPASVSGSPGQSITISCTGTSSDVGSYNLVSWYQQRPGKAPELMIYEVTKRPSGLSNRFSGSKSGNTASLTISGLQAEDEADYYCCSYAGSDTVIFGGGTKVTVL
On to B8, for which, in [4], the “EC50 (read off the curve)” value was roughly 0.2 µg/mL.

B9: SARS-CoV-2 S303 mAb (B cell supernatant) (antibody, V domains shown)
VH: EVQLVESGGGLVKPGGSLRLSCAASGFTFLTYSMNWVRQTPGKRLQWVSAISGSGGATYYADSVKGRFTISRDNSKNTLYLQMNTVTADDTAIYFCARERDDIFPMGLNAFDIWGQGAMVIVSS
VL: DIQMTQSPSTLSASVGDRVTITCRASQSISNWLAWYQQKPGKAPKLLIYKASSLESGVPSRFSGSGSGTEFTLTISSLQPDDSATYYCQQYDTYSWTFGQGTKVEIK
Regarding B9, in test [3], the “Percent neutralization of infection, dilution 2” value came out at 6%; the “Percent neutralization of infection, dilution 6” value turned out to be 5%; the “Percent neutralization of infection, dilution 18” value amounted to 2%; the “Percent neutralization of infection, dilution 54” value was 12%.

B10: S303 rIgG1 (antibody, V domains shown)
VH: B9 VH
VL: B9 VL
Consider B10, for which the “EC50 (read off the curve)” value in test [4] was roughly 0.001 µg/mL; in [9], roughly 0.4 µg/mL. This molecule showed an EC50 in test [10] of 0.383 µg/mL. Besides, the Kd is 23.6 nM in [11], less than 0.001 nM in test [12], 23.6 nM in test [13] and less than 0.001 nM in test [14].

B11: S303-rIgG1-LS (antibody, V domains shown)
VH: B9 VH
VL: B9 VL
Regarding B11, the “EC50 (read off the curve)” value in test [15] was roughly 0.09 µg/mL; in test [16], roughly 0.03 µg/mL; in test [17], roughly 0.09 µg/mL; in [18], roughly 0.03 µg/mL.

(Values after patent US20230331821A1 (VIR BIOTECHNOLOGY, published 2023).)
